This is an account of results in the supplement of paper PMC10567573.

B1: GAGE1 (parent)
chain: RPRRYVQPPEMIGPMRPEQFSDEV
B2: WSB1 (parent)
chain: DLKDDGNMMKVLRGHQNWVYSCAF
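Further: lentivirally expressed fusions sorted by FACS into six bins by GFP to DsRed ratio, PSI derived from sequencing read proportions per bin multiplied by bin number.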

Variants of B1 are the subject of one data set. In words: protein stability index of a GFP-peptide fusion (GPS, HEK-293T) (PSI 1-6); higher = more stable. To be noted: c terminus: a fixed tail appended.
As to RPRRYVQPPEMIEPMRPEQFSDEV [G13E], the protein stability index is 3.95. Same read-out and setting: as for RPRRYVQPPEMISPMRPEQFSDEV [G13S], the figure is 4.09; as for RPRRYVQPPEMITPMRPEQFSDEV [G13T], 4.33; as for RPRRYVQPPEMIGPMRQEQFSDEV [P17Q], 4.15. Still for that read-out and setting: then RPRRYVQPPEMIGPMRNEQFSDEV [P17N], with 4.09; and RPRRYVQPPEMIGPMREEQFSDEV [P17E], with 4.33.

For RPRRYVQPPEMIGPMLPEQFSDEV [R16L], the protein stability index worked out at 3.5. RPRRYVQPPEMIGPIRPEQFSDEV [M15I]: the protein stability index was 4.12.

As to RPRRYVQPPEMIGPKRPEQFSDEV [M15K], the protein stability index amounted to 4.48. Still for that read-out and setting: as for RPRRYVQPPEMIGPWRPEQFSDEV [M15W], the figure is 3.49; as for RPRRYVQPPEMIGPPRPEQFSDEV [M15P], 4.31; as for RPFRYVQPPEMIGPMRPEQFSDEV [R3F], 2.21. Same read-out and setting: then RPPRYVQPPEMIGPMRPEQFSDEV [R3P], with 4.04; and RPNRYVQPPEMIGPMRPEQFSDEV [R3N], with 4.07; and RPRRYVQPPEMIGPMRPEQTSDEV [F20T], with 4.62. Take RPRRYVQPPEMIGPMRPEQMSDEV [F20M]: the protein stability index was 4.08. Same read-out and setting: then RPRRYVKPPEMIGPMRPEQFSDEV [Q7K], with 4.02; and RPRRYVVPPEMIGPMRPEQFSDEV [Q7V], with 3.57; and RPRRYVIPPEMIGPMRPEQFSDEV [Q7I], with 3.63. The same measure, in the same setting: as for RPRRYVTPPEMIGPMRPEQFSDEV [Q7T], the figure is 4.01; as for RPRRYVMPPEMIGPMRPEQFSDEV [Q7M], 3.52; as for RPRRYVQPPEMIGRMRPEQFSDEV [P14R], 4.31. Same read-out and setting: as for RPRRYLQPPEMIGPMRPEQFSDEV [V6L], the figure is 3.69; as for RPRRYDQPPEMIGPMRPEQFSDEV [V6D], 4.34; as for RPRRYPQPPEMIGPMRPEQFSDEV [V6P], 4.06. On to RFRRYVQPPEMIGPMRPEQFSDEV [P2F], for which the protein stability index came out at 2.81. In the case of RIRRYVQPPEMIGPMRPEQFSDEV [P2I], the protein stability index stood at 2.5. Same read-out and setting: as for RPRRYVQPPEGIGPMRPEQFSDEV [M11G], the figure is 4.44.

For RPRRYVQPPEWIGPMRPEQFSDEV [M11W], the protein stability index worked out at 3.91. The same measure, in the same setting: then RPRRYVQPPESIGPMRPEQFSDEV [M11S], with 3.54. Regarding RPRRYVQPPEPIGPMRPEQFSDEV [M11P], the protein stability index is 4.53. In the case of RPRRYVQPPENIGPMRPEQFSDEV [M11N], the protein stability index stood at 3.38. Same read-out and setting: as for RPRRTVQPPEMIGPMRPEQFSDEV [Y5T], the figure is 4.45. As for RPRRVVQPPEMIGPMRPEQFSDEV [Y5V], the protein stability index was determined as 4.41. For the variant RPRRYVQPMEMIGPMRPEQFSDEV [P9M], the protein stability index was 3.92. Same read-out and setting: then RPRRYVQPHEMIGPMRPEQFSDEV [P9H], with 3.82; and RPRRYVQPPEMIGPMRPEQFSSEV [D22S], with 3.95. GPRRYVQPPEMIGPMRPEQFSDEV [R1G]: the protein stability index amounted to 3.85.

As to QPRRYVQPPEMIGPMRPEQFSDEV [R1Q], the protein stability index was determined as 4.23.

On to PPRRYVQPPEMIGPMRPEQFSDEV [R1P], for which the protein stability index came to 3.8.

As to RPRRYVQPPEMIGPMRPEWFSDEV [Q19W], the protein stability index was 3.12. The same measure, in the same setting: as for RPRRYVQPPEMKGPMRPEQFSDEV [I12K], the figure is 4.62; as for RPRRYVQPPEMPGPMRPEQFSDEV [I12P], 4.31. Turning to RPRRYVQPPEMYGPMRPEQFSDEV [I12Y], the protein stability index is 3.91. Consider RPRRYVQWPEMIGPMRPEQFSDEV [P8W], for which the protein stability index came to 3.09. On the same count and under the same terms, then RPRLYVQPPEMIGPMRPEQFSDEV [R4L], with 4.04; and RPRRYVQPPEMIGPMRPLQFSDEV [E18L], with 3.52.

The variants in the next data set derive from B2. The description is as above. To be noted: c terminus: a fixed tail appended.
DLKDDGNMMKVLRGHQNWVYNCAF [S21N]: the protein stability index was 1.46. Regarding DLKDDGNMMKVLRGHQNWVYTCAF [S21T], the protein stability index is 1.07. As to DLKDDGNMMKVLRGHQNWVYRCAF [S21R], the protein stability index turned out to be 1.22. DLKDDGNMMKVLRGHQNWVYECAF [S21E]: the protein stability index is 1.94. Same read-out and setting: then DLKDDGNMMKVLRGHQNWVYACAF [S21A], with 2.3. For the variant DLKDDGNMMKVLRGHQNWVYYCAF [S21Y], the protein stability index was 3.37. Same read-out and setting: as for DLKDDGNMMKVLRGHQNWVYGCAF [S21G], the figure is 2.27; as for DLKDDGNMMKVLRGHQNWVYHCAF [S21H], 2.05; as for DLKDDGNMMKVLRGHQNWVYDCAF [S21D], 2.05. DLKDDGNMMKVLRGHQNWVYKCAF [S21K]: the protein stability index is 1.07.

Regarding DLKDDGNMMKVLRGHQNWVYPCAF [S21P], the protein stability index stood at 2.05. Consider DLKDDGNMMKVLRGHQNWVYSNAF [C22N], for which the protein stability index came out at 1.81. DLKDDGNMMKVLRGHQNWVYSDAF [C22D]: the protein stability index is 3.46.

On to DLKDDGNMMKVLRGHQNWVYSYAF [C22Y], for which the protein stability index came out at 1.72.

DLKDDGNMMKVLRGHQNWVYSGAF [C22G]: the protein stability index came to 1.69. Consider DLKDDGNMMKVLRGHQNWVYSFAF [C22F], for which the protein stability index came out at 2.98. Regarding DLKDDGNMMKVLRGHQNWVYSLAF [C22L], the protein stability index was determined as 3.06. Same read-out and setting: then DLKDDGNMMKVLRGHQNWVYSKAF [C22K], with 1.77. On the same count and under the same terms, then DLKDDGNMMKVLRGHQNWVYSIAF [C22I], with 2.86; and DLKDDGNMMKVLRGHQNWVYSHAF [C22H], with 1.33. Still for that read-out and setting: as for DLKDDGNMMKVLRGHQNWVYSQAF [C22Q], the figure is 2.15; as for DLKDDGNMMKVLRGHQNWVYSMAF [C22M], 2.61. On to DLKDDGNMMKVLRGHQNWVYSSAF [C22S], for which the protein stability index is 1.61. As to DLKDDGNMMKVLRGHQNWVYSPAF [C22P], the protein stability index is 2.01. Still for that read-out and setting: then DLKDDGNMMKVLRGHQNWVYSEAF [C22E], with 2.39; and DLKDDGNMMKVLRGHQNWVYSTAF [C22T], with 1.9; and DLKDDGNMMKVLRGHQNWVYSAAF [C22A], with 2.25. On the same count and under the same terms, then DLKDDGNMMKVLRGHQNWVYSRAF [C22R], with 2.33. Still for that read-out and setting: as for DLKDDGNMMKVLRGHQNWYYSCAF [V19Y], the figure is 2.87. For the variant DLKDDGNMMKVLRGHQNWMYSCAF [V19M], the protein stability index was 2.52.

Consider DLKDDGNMMKVLRGHQNWIYSCAF [V19I], for which the protein stability index was found to be 2.13. For DLKDDGNMMKVLRGHQNWLYSCAF [V19L], the protein stability index stood at 2.22. Still for that read-out and setting: then DLKDDGNMMKVLRGHQNWHYSCAF [V19H], with 2.12; and DLKDDGNMMKVLRGHQNWFYSCAF [V19F], with 1.34. Take DLKDDGNMMKVLRGHQNWAYSCAF [V19A]: the protein stability index amounted to 2.53.

In the case of DLKDDGNMMKVLRGHQNWDYSCAF [V19D], the protein stability index was determined as 2.15. Consider DLKDDGNMMKVLRGHQNWWYSCAF [V19W], for which the protein stability index was 2.28. The same measure, in the same setting: as for DLKDDGNMMKVLRGHQNWPYSCAF [V19P], the figure is 2.03; as for DLKDDGNMMKVLRGHQNWNYSCAF [V19N], 1.44.

On to DLKDDGNMMKVLRGHQNWGYSCAF [V19G], for which the protein stability index was 2.66. For the variant DLKDDGNMMKVLRGHQNWSYSCAF [V19S], the protein stability index is 1.04. The same measure, in the same setting: then DLKDDGNMMKVLRGHQNWCYSCAF [V19C], with 2.73.

As for DLKDDGNMMKVLRGHQNWKYSCAF [V19K], the protein stability index amounted to 1.75. Take DLKDDGNMMKVLRGHQNWQYSCAF [V19Q]: the protein stability index was 2.07. As for DLKDDGNMMKVLRGHQNWRYSCAF [V19R], the protein stability index came to 2.86. For the variant DLKDDGNMMKVLRGHQNWTYSCAF [V19T], the protein stability index came to 1.71. The same measure, in the same setting: as for DLKDDGNMMKVLRGHQNWVYSCEF [A23E], the figure is 2.24.
